The values that follow come from the supplement of paper PMC5998384.

Data set [1] deals with HeLa Kyoto. In words: solubility change mitosis vs G1/S (difference of NP-40 vs SDS log2 ratios) (log2 ratio difference); higher = more soluble in mitosis.
Data set [2] deals with HeLa Kyoto. In words: melting temperature (median over replicates), in situ; higher = more thermally stable.
Data set [3] concerns HeLa Kyoto. Put plainly: solubility in G1/S (NP-40 vs SDS abundance) (log2 ratio); higher = more soluble. Conditions: cell cycle stage: G1/S.
In data set [4] the test system is HeLa Kyoto. In words: thermal stability score vs G1/S (z-score of summed log2 fold changes over temperatures); higher = more thermally stable than in G1/S.
[5] abbreviates: cell cycle stage: early G1 (4.5 h after nocodazole release).
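For melting temperature (median over replicates), in situ in this document: HeLa Kyoto cells synchronized by double thymidine or nocodazole block, proteins quantified by TMT10plex mass spectrometry, three independent biological replicates.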
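For solubility change mitosis vs G1/S (difference of NP-40 vs SDS log2 ratios) in this document: synchronized HeLa Kyoto cells (double thymidine block for G1/S, nocodazole release for mitosis), protein amounts in NP-40 versus SDS lysates quantified by mass spectrometry, three biological replicates.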
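For solubility in G1/S (NP-40 vs SDS abundance) in this document: HeLa Kyoto cells arrested at G1/S by double thymidine block, proteins quantified by TMT10plex mass spectrometry in mild NP-40 versus SDS extracts, three biological replicates.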
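For thermal stability score vs G1/S (z-score of summed log2 fold changes over temperatures) in this document: synchronized HeLa Kyoto cells, proteins quantified by TMT10plex mass spectrometry, three biological replicates, mitosis taken 0.5 h after nocodazole release, G1/S directly after double thymidine block.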

Sequence of NDRG3 (chain, as listed by the source): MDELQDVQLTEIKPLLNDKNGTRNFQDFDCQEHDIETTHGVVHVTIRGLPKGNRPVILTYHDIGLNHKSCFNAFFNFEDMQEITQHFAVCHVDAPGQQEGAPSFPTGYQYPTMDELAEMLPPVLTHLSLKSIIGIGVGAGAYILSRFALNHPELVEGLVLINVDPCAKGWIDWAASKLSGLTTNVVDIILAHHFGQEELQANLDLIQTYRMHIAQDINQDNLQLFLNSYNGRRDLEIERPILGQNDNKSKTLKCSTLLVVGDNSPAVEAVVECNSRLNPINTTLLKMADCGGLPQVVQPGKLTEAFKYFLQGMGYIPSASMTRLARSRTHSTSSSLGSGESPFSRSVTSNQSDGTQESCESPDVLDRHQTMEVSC
Sequence of NUDC (chain, as listed by the source): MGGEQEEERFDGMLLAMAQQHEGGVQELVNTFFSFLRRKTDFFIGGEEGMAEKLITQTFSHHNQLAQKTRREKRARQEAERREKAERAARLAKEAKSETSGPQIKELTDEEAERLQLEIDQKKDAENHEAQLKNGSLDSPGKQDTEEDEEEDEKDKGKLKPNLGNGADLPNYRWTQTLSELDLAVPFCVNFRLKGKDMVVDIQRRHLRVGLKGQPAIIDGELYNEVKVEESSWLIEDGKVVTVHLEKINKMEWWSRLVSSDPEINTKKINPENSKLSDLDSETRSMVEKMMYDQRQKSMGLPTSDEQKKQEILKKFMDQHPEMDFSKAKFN
Sequence of NDRG1 (chain, as listed by the source): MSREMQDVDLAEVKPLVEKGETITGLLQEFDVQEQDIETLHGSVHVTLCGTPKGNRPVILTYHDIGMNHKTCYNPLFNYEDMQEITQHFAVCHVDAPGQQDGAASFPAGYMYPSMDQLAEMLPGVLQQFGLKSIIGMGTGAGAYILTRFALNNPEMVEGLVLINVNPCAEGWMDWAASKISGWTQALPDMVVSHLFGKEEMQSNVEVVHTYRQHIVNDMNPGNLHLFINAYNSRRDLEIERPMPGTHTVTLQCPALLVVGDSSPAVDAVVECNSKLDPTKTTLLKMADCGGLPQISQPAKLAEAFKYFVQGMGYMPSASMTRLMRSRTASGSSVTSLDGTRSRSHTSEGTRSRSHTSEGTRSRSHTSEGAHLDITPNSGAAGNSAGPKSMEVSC
Sequence of NARFL (chain, as listed by the source): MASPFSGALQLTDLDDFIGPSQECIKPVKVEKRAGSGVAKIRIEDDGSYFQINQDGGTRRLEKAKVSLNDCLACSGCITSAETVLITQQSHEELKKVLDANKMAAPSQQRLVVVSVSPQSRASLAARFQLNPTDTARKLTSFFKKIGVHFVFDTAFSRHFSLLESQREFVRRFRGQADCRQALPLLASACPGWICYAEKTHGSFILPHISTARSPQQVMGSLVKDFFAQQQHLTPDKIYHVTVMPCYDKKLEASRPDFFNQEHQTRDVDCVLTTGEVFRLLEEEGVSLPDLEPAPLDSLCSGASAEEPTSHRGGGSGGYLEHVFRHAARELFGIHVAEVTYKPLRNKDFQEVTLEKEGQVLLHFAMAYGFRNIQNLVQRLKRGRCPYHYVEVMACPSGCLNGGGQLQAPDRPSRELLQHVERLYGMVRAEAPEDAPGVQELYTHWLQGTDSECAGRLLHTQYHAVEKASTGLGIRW
Sequence of NRBP1 (chain, as listed by the source): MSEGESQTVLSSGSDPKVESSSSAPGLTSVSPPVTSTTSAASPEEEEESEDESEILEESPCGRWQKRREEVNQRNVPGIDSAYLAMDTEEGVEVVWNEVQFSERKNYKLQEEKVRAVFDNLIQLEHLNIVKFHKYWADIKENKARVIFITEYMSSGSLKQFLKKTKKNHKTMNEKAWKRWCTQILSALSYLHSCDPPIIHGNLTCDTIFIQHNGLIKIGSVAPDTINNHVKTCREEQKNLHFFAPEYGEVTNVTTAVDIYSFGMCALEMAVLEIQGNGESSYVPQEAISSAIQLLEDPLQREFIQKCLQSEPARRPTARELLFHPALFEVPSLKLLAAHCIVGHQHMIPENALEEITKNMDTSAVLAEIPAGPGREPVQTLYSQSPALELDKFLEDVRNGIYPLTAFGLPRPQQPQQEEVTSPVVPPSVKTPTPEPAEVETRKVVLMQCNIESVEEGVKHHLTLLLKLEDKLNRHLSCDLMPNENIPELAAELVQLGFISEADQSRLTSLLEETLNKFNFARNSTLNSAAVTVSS

As for NARFL, the “solubility change mitosis (log2)” value in the data set with HeLa Kyoto [1] was -0.0938. Moreover, the melting temperature in the data set on HeLa Kyoto [2] (cell cycle stage: G1/S) came out at 54.2 °C; in the data set with HeLa Kyoto [2] (cell cycle stage: mitosis), 53.8 °C. Also, in the data set with HeLa Kyoto [3], the “solubility in G1/S (log2)” value was 0.0811. In addition, the results for the thermal stability score with HeLa Kyoto [4] (setting [5]) and in the data set with HeLa Kyoto [4] (cell cycle stage: mitosis) were 0.41 and 0.802, respectively.
Turning to NAV1, in the data set with HeLa Kyoto [1], the “solubility change mitosis (log2)” value worked out at 0.0198. For the same substance, the melting temperature came to 47.2 °C in the data set with HeLa Kyoto [2] (cell cycle stage: G1/S) and 49 °C with HeLa Kyoto [2] (cell cycle stage: mitosis). The “solubility in G1/S (log2)” value in the data set on HeLa Kyoto [3] is -0.141. In addition, the thermal stability score stood at 1.35 with HeLa Kyoto [4] (setting [5]) and 2.83 in the data set with HeLa Kyoto [4] (cell cycle stage: mitosis).
As for NBAS, the “solubility change mitosis (log2)” value with HeLa Kyoto [1] is -0.169. Further, the results for the melting temperature with HeLa Kyoto [2] (cell cycle stage: G1/S) and in the data set on HeLa Kyoto [2] (cell cycle stage: mitosis) were 49.8 °C and 50.1 °C, respectively. In addition, the “solubility in G1/S (log2)” value with HeLa Kyoto [3] is -0.197. Besides, the thermal stability score is 0.362 in the data set with HeLa Kyoto [4] (setting [5]) and 1.51 in the data set with HeLa Kyoto [4] (cell cycle stage: mitosis).
NCOR1: the “solubility change mitosis (log2)” value with HeLa Kyoto [1] worked out at 0.0133. Also, the melting temperature came to 48.5 °C in the data set on HeLa Kyoto [2] (cell cycle stage: G1/S) and 52.2 °C with HeLa Kyoto [2] (cell cycle stage: mitosis). Besides, the “solubility in G1/S (log2)” value with HeLa Kyoto [3] was -0.0922. Also, the thermal stability score with HeLa Kyoto [4] (setting [5]) stood at 0.817; in the data set with HeLa Kyoto [4] (cell cycle stage: mitosis) it was 5.94.
As to NDRG1, the “solubility change mitosis (log2)” value in the data set with HeLa Kyoto [1] turned out to be 0.00645. Further, the melting temperature is 53.1 °C with HeLa Kyoto [2] (cell cycle stage: G1/S) and 53.6 °C with HeLa Kyoto [2] (cell cycle stage: mitosis). Also, the “solubility in G1/S (log2)” value with HeLa Kyoto [3] is 0.246. Besides, the thermal stability score with HeLa Kyoto [4] (setting [5]) is 1.68; with HeLa Kyoto [4] (cell cycle stage: mitosis), -0.0804.
Turning to NDRG3, in the data set with HeLa Kyoto [1], the “solubility change mitosis (log2)” value is -0.371. Also, the figures for the melting temperature in the data set with HeLa Kyoto [2] (cell cycle stage: G1/S) and in the data set on HeLa Kyoto [2] (cell cycle stage: mitosis) were 52.2 °C and 52 °C, respectively. Also, the “solubility in G1/S (log2)” value in the data set with HeLa Kyoto [3] is 0.351. Besides, the thermal stability score with HeLa Kyoto [4] (setting [5]) was 0.668; with HeLa Kyoto [4] (cell cycle stage: mitosis), 0.934.
For the substance NF1, in the data set with HeLa Kyoto [1], the “solubility change mitosis (log2)” value is -0.137. The melting temperature in the data set on HeLa Kyoto [2] (cell cycle stage: G1/S) was 49.7 °C; with HeLa Kyoto [2] (cell cycle stage: mitosis), 50.4 °C. The “solubility in G1/S (log2)” value in the data set with HeLa Kyoto [3] is -0.315. Besides, the thermal stability score with HeLa Kyoto [4] (setting [5]) was -0.998; with HeLa Kyoto [4] (cell cycle stage: mitosis), -0.184.
Turning to NFIB, the “solubility change mitosis (log2)” value with HeLa Kyoto [1] is -0.032. In addition, the melting temperature with HeLa Kyoto [2] (cell cycle stage: G1/S) came out at 54.2 °C; in the data set on HeLa Kyoto [2] (cell cycle stage: mitosis), 53.9 °C. Further, in the data set on HeLa Kyoto [3], the “solubility in G1/S (log2)” value amounted to 0.238. The figures for the thermal stability score in the data set with HeLa Kyoto [4] (setting [5]) and with HeLa Kyoto [4] (cell cycle stage: mitosis) were 1.24 and 1.07, respectively.
On to NRBP1, for which, in the data set on HeLa Kyoto [1], the “solubility change mitosis (log2)” value is -0.15. Further, the figures for the melting temperature with HeLa Kyoto [2] (cell cycle stage: G1/S) and in the data set on HeLa Kyoto [2] (cell cycle stage: mitosis) were 51.9 °C and 51.4 °C, respectively. Moreover, the “solubility in G1/S (log2)” value in the data set on HeLa Kyoto [3] was found to be 0.099. The thermal stability score with HeLa Kyoto [4] (setting [5]) is 0.757; in the data set with HeLa Kyoto [4] (cell cycle stage: mitosis), 0.7.
With NUDC, the “solubility change mitosis (log2)” value in the data set on HeLa Kyoto [1] is -0.106. Besides, the melting temperature in the data set with HeLa Kyoto [2] (cell cycle stage: G1/S) is 51.9 °C; with HeLa Kyoto [2] (cell cycle stage: mitosis), 52.4 °C. Moreover, the “solubility in G1/S (log2)” value in the data set with HeLa Kyoto [3] came to 0.405. Besides, the thermal stability score was 0.837 in the data set on HeLa Kyoto [4] (setting [5]) and -0.681 in the data set with HeLa Kyoto [4] (cell cycle stage: mitosis).
NUP205: the “solubility change mitosis (log2)” value with HeLa Kyoto [1] came to 0.203. For the same substance, the melting temperature in the data set on HeLa Kyoto [2] (cell cycle stage: G1/S) was determined as 52.1 °C; with HeLa Kyoto [2] (cell cycle stage: mitosis), 48.8 °C. For the same substance, the “solubility in G1/S (log2)” value in the data set with HeLa Kyoto [3] was -0.671. Also, the results for the thermal stability score in the data set with HeLa Kyoto [4] (setting [5]) and in the data set with HeLa Kyoto [4] (cell cycle stage: mitosis) were -4.5 and -6.17, respectively.
